Consider three proteins from publication PMC12445682 (Nucleic Acids Research, 2025).

This data set deals with the molecule itself. Nature of the data set: SEC. In general terms: In gel filtration, larger molecules generally elute earlier.

B1: P2–OLD H332A (ATPase domain mutant), His-MBP-bdSUMO fusion (enzyme, phage P2, UniProt P13520 1-586, looked up)
chain: MTVRLASVSISNFRSCKSTSAILRPFTALVGYNNAGKSNIILAIKWLLDGSLISESDVYDPTHPVSVEGVIQGITDDTLSLLTEENQQKIAPFIIDGTLTFARRQEFNKETGKAKKSLDVYDGTTWKKNPGGIDGAISNIFPEPIHIPAMSDAVEDSTKCKNTTTIGKILSAIVSEIKQEHEEKFSKNISEIGKYLSHNGENRLESLNKIDSGVNKKVNQFFPDVSVKLHFPTPTLDEIFKSGTLKVFESREDEPVMRDISRFGHGTQRSIQMALIQYLAEIKKENSESKKSNTLIFIDEPELYLHPSAINSVRESLVTLSESGYQVIISTASASMLSAKHAANAIQVCKDSNGTIARKTISEKIEELYKSSSPQLHSAFTLSNSSYLLFSEEVLLVEGKTETNVLYALYKKINGHELNPSKICIVAVDGKGSLFKMSQIINAIGIKTRILADCDFLSNILLTEHKDLLSTECDNLLTALIESINSGELSLNTKVTTFESFKSISSKDFIKICNHEKTQKHIHEIHQKLKDNGIYIWKSGDIEAVYGFGKKQTEWDSLLDCLCDESKDVRAVIKKYDEMEDFIKWI
As for B1, the binding result was “binds”.

B2: P2–OLD H332A/E402A (ATPase and Toprim double mutant), His-MBP-bdSUMO fusion (enzyme, phage P2, UniProt P13520 1-586, looked up)
chain: MTVRLASVSISNFRSCKSTSAILRPFTALVGYNNAGKSNIILAIKWLLDGSLISESDVYDPTHPVSVEGVIQGITDDTLSLLTEENQQKIAPFIIDGTLTFARRQEFNKETGKAKKSLDVYDGTTWKKNPGGIDGAISNIFPEPIHIPAMSDAVEDSTKCKNTTTIGKILSAIVSEIKQEHEEKFSKNISEIGKYLSHNGENRLESLNKIDSGVNKKVNQFFPDVSVKLHFPTPTLDEIFKSGTLKVFESREDEPVMRDISRFGHGTQRSIQMALIQYLAEIKKENSESKKSNTLIFIDEPELYLHPSAINSVRESLVTLSESGYQVIISTASASMLSAKHAANAIQVCKDSNGTIARKTISEKIEELYKSSSPQLHSAFTLSNSSYLLFSEEVLLVEGKTATNVLYALYKKINGHELNPSKICIVAVDGKGSLFKMSQIINAIGIKTRILADCDFLSNILLTEHKDLLSTECDNLLTALIESINSGELSLNTKVTTFESFKSISSKDFIKICNHEKTQKHIHEIHQKLKDNGIYIWKSGDIEAVYGFGKKQTEWDSLLDCLCDESKDVRAVIKKYDEMEDFIKWI
As for B2, the binding result is given as “binds”.

B3: P2–OLD E402A (Toprim domain mutant), His-MBP-bdSUMO fusion (enzyme, phage P2, UniProt P13520 1-586, looked up)
chain: MTVRLASVSISNFRSCKSTSAILRPFTALVGYNNAGKSNIILAIKWLLDGSLISESDVYDPTHPVSVEGVIQGITDDTLSLLTEENQQKIAPFIIDGTLTFARRQEFNKETGKAKKSLDVYDGTTWKKNPGGIDGAISNIFPEPIHIPAMSDAVEDSTKCKNTTTIGKILSAIVSEIKQEHEEKFSKNISEIGKYLSHNGENRLESLNKIDSGVNKKVNQFFPDVSVKLHFPTPTLDEIFKSGTLKVFESREDEPVMRDISRFGHGTQRSIQMALIQYLAEIKKENSESKKSNTLIFIDEPELYLHPSAINSVRESLVTLSESGYQVIISTHSASMLSAKHAANAIQVCKDSNGTIARKTISEKIEELYKSSSPQLHSAFTLSNSSYLLFSEEVLLVEGKTATNVLYALYKKINGHELNPSKICIVAVDGKGSLFKMSQIINAIGIKTRILADCDFLSNILLTEHKDLLSTECDNLLTALIESINSGELSLNTKVTTFESFKSISSKDFIKICNHEKTQKHIHEIHQKLKDNGIYIWKSGDIEAVYGFGKKQTEWDSLLDCLCDESKDVRAVIKKYDEMEDFIKWI
With B3, the binding result was “binds”.
